Measurements: PMC3697942

Target: T1, HB5 (HOMEOBOX PROTEIN 5, class I HD-ZIP) (Arabidopsis thaliana, UniProt P46667 1-312)
T1 sequence: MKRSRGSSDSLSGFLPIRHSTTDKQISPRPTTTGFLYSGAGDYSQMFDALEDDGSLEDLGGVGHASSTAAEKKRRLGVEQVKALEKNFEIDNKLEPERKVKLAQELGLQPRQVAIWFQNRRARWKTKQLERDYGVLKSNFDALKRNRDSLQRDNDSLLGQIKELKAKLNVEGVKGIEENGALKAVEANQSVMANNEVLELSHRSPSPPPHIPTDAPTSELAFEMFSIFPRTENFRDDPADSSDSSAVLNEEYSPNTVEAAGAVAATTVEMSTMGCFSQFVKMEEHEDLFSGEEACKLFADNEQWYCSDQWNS
Test: EMSA

B1: PF 36bp (dsDNA)
DNA 1: GGCCCGCCATTACAAGACATATGGGTCCCAATTCTCATCACGGGCC
DNA 2: GGCCCGTGATGAGAATTGGGACCCATATGTCTTGTAATGGCGGGCC
  binding result: binds
